Key:
Experiment in all cases: cell-based or functional assay
[1] = molecular target: HIV Env, isolate Du172.17 (HIV)
HIV Env, isolate CNE30 = HIV Env, isolate CNE30 (HIV)
[2] = molecular target: HIV Env, isolate 62357_14_D3_4589 (HIV)
[3] = molecular target: HIV Env, isolate 3016.v5.c45 (HIV)
[4] = molecular target: HIV Env, isolate Du156.12 (HIV)
[5] = molecular target: HIV Env, isolate ZM53M.PB12 (HIV)
[6] = molecular target: HIV Env, isolate RHPA4259.7 (HIV)
[7] = molecular target: HIV Env, isolate CAP210.2.00.E8 (HIV)
[8] = molecular target: HIV Env, isolate SC05_8C11_2344 (HIV)
[9] = molecular target: HIV Env, isolate 1006_11_C3_1601 (HIV)
[10] = molecular target: HIV Env, isolate 6146.v7.c23 (HIV)
[11] = molecular target: HIV Env, isolate TRP363.2.00_10_3 (HIV)
[12] = molecular target: HIV Env, isolate CAP291.2.00_H2.15 (HIV)
[13] = molecular target: HIV Env, isolate 20927783 (HIV)
[14] = molecular target: HIV Env, isolate CAP69.1.12_TA7.1 (HIV)
[15] = molecular target: HIV Env, isolate 3426.v5.c17 (HIV)
[16] = molecular target: HIV Env, isolate 556_F2_3_25 (HIV)
[17] = molecular target: HIV Env, isolate Me178_G6.16 (HIV)
[18] = molecular target: HIV Env, isolate ZM197M.PB7 (HIV)
[19] = molecular target: HIV Env, isolate 18814602_H8_F3 (HIV)
[20] = molecular target: HIV Env, isolate 6980.v0.c31 (HIV)
[21] = molecular target: HIV Env, isolate TRP290.2.00_23_6 (HIV)
[22] = molecular target: HIV Env, isolate 21283649 (HIV)
[23] = molecular target: HIV Env, isolate So431_C1_1 (HIV)
[24] = molecular target: HIV Env, isolate 704010042 (HIV)
[25] = molecular target: HIV Env, isolate CeCAP188_1_D1_14(Rev-) (HIV)
[26] = molecular target: HIV Env, isolate CT184_D3.15 (HIV)
[27] = molecular target: HIV Env, isolate Ce2052_G10 (HIV)
[28] = molecular target: HIV Env, isolate CAP45.2.00.G3 (HIV)
HIV Env, isolate Du422.1 = HIV Env, isolate Du422.1 (HIV)

B1: ePGDM9 (antibody, V domains shown)
VH: QAQLVQSGPEVRKPGTSVKVSCKNPGNTLTTYDLHWVRQVPGQGLQWMGWISHEGDKKVIVERFKAKVTIDWDRSTNTAYLQLSGLTSEDTAVYYCAKGSKHRLRDYALYDEDGALNWAVDVDYLANLEFWGQGTAVTVSS
VL: DIVLTQSPLSLSVTPGESASISCKSSQSLIHGDRNNYLAWYVQKPGRSPQLLIDLASERASGVPDRFSGSGSRKDFTLKISRVETEDVGTYYCMQGRESPWTFGQGTKVDIK
IC80 (µg/ml) with constrains [1]: 3.46 µg/mL
IC80 (µg/ml) with constrains (HIV Env, isolate CNE30): > 100 µg/mL
IC80 (µg/ml) with constrains [2]: 38 µg/mL
IC80 (µg/ml) with constrains [3]: > 100 µg/mL
IC80 (µg/ml) with constrains [4]: 0.016 µg/mL
IC80 (µg/ml) with constrains [5]: 0.026 µg/mL
IC80 (µg/ml) with constrains [6]: 0.578 µg/mL
IC80 (µg/ml) with constrains [7]: 0.221 µg/mL
IC80 (µg/ml) with constrains [8]: 4.25 µg/mL
IC80 (µg/ml) with constrains [9]: 2.35 µg/mL
IC50 [10]: 0.019 µg/mL
IC80 [10]: 0.249 µg/mL
IC50 [11]: 1.81 µg/mL
IC80 [11]: > 50 µg/mL
IC50 [12]: 0.342 µg/mL
IC80 [12]: 1.1 µg/mL
IC50 [13]: 0.005 µg/mL
IC80 [13]: 0.017 µg/mL
IC50 [14]: 0.01 µg/mL
IC80 [14]: 0.039 µg/mL
IC50 [15]: < 0.0006 µg/mL
IC80 [15]: 0.002 µg/mL
IC50 [16]: > 50 µg/mL
IC80 [16]: > 50 µg/mL
IC50 [17]: 0.006 µg/mL
IC80 [17]: 0.031 µg/mL
IC50 [18]: 0.017 µg/mL
IC80 [18]: 0.05 µg/mL
IC50 [19]: < 0.0006 µg/mL
IC80 [19]: 0.002 µg/mL
IC50 [20]: < 0.0006 µg/mL
IC80 [20]: 0.006 µg/mL
IC50 [21]: 0.012 µg/mL
IC80 [21]: 0.06 µg/mL
IC50 [22]: 1.55 µg/mL
IC80 [22]: > 50 µg/mL
IC50 [23]: > 50 µg/mL
IC80 [23]: > 50 µg/mL
IC50 [24]: < 0.0006 µg/mL
IC80 [24]: < 0.0006 µg/mL
IC50 [25]: > 50 µg/mL
IC80 [25]: > 50 µg/mL
IC50 [26]: < 0.0006 µg/mL
IC80 [26]: 0.002 µg/mL
IC50 [27]: 0.001 µg/mL
IC80 [27]: 0.005 µg/mL
IC50 [28]: < 0.0006 µg/mL
IC80 [28]: < 0.0006 µg/mL
IC50 (HIV Env, isolate Du422.1): > 50 µg/mL
IC80 (HIV Env, isolate Du422.1): > 50 µg/mL

From US20230134571A1 (INTERNATIONAL AIDS VACCINE INITIATIVE, published 2023)
